Measurements: paper PMC7041945, “Misfolded proteins bind and activate death receptor 5 to trigger apoptosis during unresolved endoplasmic reticulum stress” (eLife, 2020)

Key:
HCT116 cells [1] = test: Annexin V (and SytoxBlue) flow cytometry for apoptosis; format: cell-based, Homo sapiens; settings: for Mean ± SEM (Fig 1S2D): n=3
Description: Cells seeded in a 6-well plate were transfected with the specified plasmid for 24 hr and harvested via trypsinization in complete media to allow a 30 min recovery at 37°C. The samples were then centrifuged at 500xg for 5 min and resuspended In 150 μl of a 1:20 dilution of Annexin V-AlexaFluor 647 conjugate (Thermo Scientific #A23204). Samples were transferred to a 96-well U-bottom plate and incubated in the dark for 15 min at RT. The distribution of apoptotic cells was determined by flow cytometry on a BD LSR II.

HCT116 cells [2] = test: Trypan blue staining, automated cell counting; format: cell-based, Homo sapiens; set-up: key to Trypan blue- / Trypan blue+ / avg Trypan blue- / avg Trypan blue+: % of cells (Trypan blue positive or negative); settings: for avg Trypan blue+ / avg Trypan blue-: avg of Rep 1-3; for Dead concentration / Live concentration / Total Concentration / Viability (%): BF
Description: Cells seeded in a 6-well plate were transfected with the specified plasmid for 24 hr and harvested via trypsinization in complete media and ultimately resuspended in 400 μl of media to obtain a concentration of 1.0–3.0 × 10^6 cells/ml. The cell suspension was then mixed 1:1 with 0.4% Trypan blue (Sigma-Aldrich) and incubated at 37°C for 30 min. The percentage of cells staining positive for was then quantified using the Countess II FL Automated Cell Counter (ThermoFisher, catalog # AMQAF1000) default brightfield settings with disposable slides.

[3] = hct chop 62, biological replicate 1 (05.22.2019)
[4] = hct chop 125 (ng), biological replicate 1 (05.22.2019)
[5] = hct chop 125 (ng), biological replicate 2 (05.24.2019)
[6] = hct chop 125 (ng), biological replicate 3 (05.24.2019)
[7] = hct chop 250 (ng), biological replicate 1 (05.22.2019)
[8] = hct chop 250 (ng), biological replicate 2 (05.24.2019)
[9] = hct chop 250 (ng), biological replicate 3 (05.24.2019)
[10] = hct chop 500 (ng), biological replicate 1 (05.22.2019)
[11] = hct chop 500 (ng), biological replicate 2 (05.24.2019)
[12] = hct chop 500 (ng), biological replicate 3 (05.24.2019)
[13] = hct chop 1000 (ng), biological replicate 1 (05.24.2019)
[14] = hct chop 1000 (ng), biological replicate 2 (05.24.2019)
[15] = hct chop 1000 (ng), biological replicate 3 (05.24.2019)

B1: CHOP: CHOP (canonical isoform) expression vector, expression of CHOP in absence of ER stress (protein, UniProt P35638 1-169, looked up)
DNA damage-inducible …: MAAESLPFSFGTLSSWELEAWYEDLQEVLSSDENGGTYVSPPGNEEEESKIFTTLDPASLAWLTEEEPEPAEVTSTSQSPHSPDSSQSSLAQEEEEEDQGRTRKRKQSGHSPARAGKQRMKEKEQENERKVAQLAEENERLKQEIERLTREVEATRRALIDRMVNLHQA
modifications: expression vector
notes: CHOP (canonical isoform) expression vector, expression of CHOP in absence of ER stress
Difference between means (HCT116 cells [1]; CHOP - 125 ng vs. empty, Welch's correction): 0.4983 ± 1.264 | Mean ± SEM (Fig 1S2D) (HCT116 cells [1]; CHOP - 125 ng): 4.046 ± 0.1409, n=3 | Difference between means (HCT116 cells [1]; CHOP - 250 ng vs. CHOP - 125 ng, Welch's correction): 4.057 ± 2.101 | Mean ± SEM (Fig 1S2D) (HCT116 cells [1]; CHOP - 250 ng): 8.103 ± 2.097, n=3 | Difference between means (HCT116 cells [1]; CHOP - 500 ng vs. CHOP - 125 ng, Welch's correction): 4.960 ± 2.593 | Difference between means (HCT116 cells [1]; CHOP - 500 ng vs. CHOP - 250 ng, unpaired t test): 0.9028 ± 3.332 | Difference between means (HCT116 cells [1]; CHOP - 500 ng vs. MPZ-GFP, unpaired t test): -28.90 ± 5.936 | Difference between means (HCT116 cells [1]; CHOP - 500 ng vs. empty, unpaired t test): 5.458 ± 2.878 | Mean ± SEM (Fig 1S2D) (HCT116 cells [1]; CHOP - 500 ng): 9.006 ± 2.589, n=3 | Trypan blue+ (HCT116 cells [2]; CHOP - 125 ng, Rep 1): 4.216 | Trypan blue- (HCT116 cells [2]; CHOP - 125 ng, Rep 1): 95.7841 | Trypan blue+ (HCT116 cells [2]; CHOP - 125 ng, Rep 2): 3.766 | Trypan blue- (HCT116 cells [2]; CHOP - 125 ng, Rep 2): 96.2338 | Trypan blue+ (HCT116 cells [2]; CHOP - 125 ng, Rep 3): 4.155 | Trypan blue- (HCT116 cells [2]; CHOP - 125 ng, Rep 3): 95.8447 | avg Trypan blue+ (HCT116 cells [2]; CHOP - 125 ng): 4.046 | avg Trypan blue- (HCT116 cells [2]; CHOP - 125 ng): 95.9542 | Trypan blue+ (HCT116 cells [2]; CHOP - 250 ng, Rep 1): 6.303 | Trypan blue- (HCT116 cells [2]; CHOP - 250 ng, Rep 1): 93.6968 | Trypan blue+ (HCT116 cells [2]; CHOP - 250 ng, Rep 2): 12.2829 | Trypan blue- (HCT116 cells [2]; CHOP - 250 ng, Rep 2): 87.7171 | Trypan blue+ (HCT116 cells [2]; CHOP - 250 ng, Rep 3): 5.723 | Trypan blue- (HCT116 cells [2]; CHOP - 250 ng, Rep 3): 94.2771 | avg Trypan blue+ (HCT116 cells [2]; CHOP - 250 ng): 8.103 | avg Trypan blue- (HCT116 cells [2]; CHOP - 250 ng): 91.897 | Trypan blue+ (HCT116 cells [2]; CHOP - 500 ng, Rep 1): 14.1844 | Trypan blue- (HCT116 cells [2]; CHOP - 500 ng, Rep 1): 85.8156 | Trypan blue+ (HCT116 cells [2]; CHOP - 500 ng, Rep 2): 6.367 | Trypan blue- (HCT116 cells [2]; CHOP - 500 ng, Rep 2): 93.633 | Trypan blue+ (HCT116 cells [2]; CHOP - 500 ng, Rep 3): 6.466 | Trypan blue- (HCT116 cells [2]; CHOP - 500 ng, Rep 3): 93.534 | avg Trypan blue+ (HCT116 cells [2]; CHOP - 500 ng): 9.006 | avg Trypan blue- (HCT116 cells [2]; CHOP - 500 ng): 90.9942 | Trypan blue+ (HCT116 cells [2]; CHOP - 1000 ng, Rep 1): 8.481 | Trypan blue- (HCT116 cells [2]; CHOP - 1000 ng, Rep 1): 91.5194 | Trypan blue+ (HCT116 cells [2]; CHOP - 1000 ng, Rep 2): 6.72 | Trypan blue- (HCT116 cells [2]; CHOP - 1000 ng, Rep 2): 93.2796 | Trypan blue+ (HCT116 cells [2]; CHOP - 1000 ng, Rep 3): 4.533 | Trypan blue- (HCT116 cells [2]; CHOP - 1000 ng, Rep 3): 95.4674 | avg Trypan blue+ (HCT116 cells [2]; CHOP - 1000 ng): 6.578 | avg Trypan blue- (HCT116 cells [2]; CHOP - 1000 ng): 93.4221 | PARP cleavage and trypan blue staining vs misfolded-protein stress (HCT116 cells [2]; comparable CHOP-induced DR5 protein, no ER stress): drastically lower levels of PARP cleavage and trypan blue staining | Dead concentration (HCT116 cells [2]; [3]): 1.35E+05 | Live concentration (HCT116 cells [2]; [3]): 2.23E+06 | Total Concentration (HCT116 cells [2]; [3]): 2.36E+06 | Viability (%) (HCT116 cells [2]; [3]): 94.2928% | Dead concentration (HCT116 cells [2]; [4]): 1.47E+05 | Live concentration (HCT116 cells [2]; [4]): 3.33E+06 | Total Concentration (HCT116 cells [2]; [4]): 3.48E+06 | Viability (%) (HCT116 cells [2]; [4]): 95.7841% | Dead concentration (HCT116 cells [2]; [5]): 3.40E+05 | Live concentration (HCT116 cells [2]; [5]): 8.69E+06 | Total Concentration (HCT116 cells [2]; [5]): 9.03E+06 | Viability (%) (HCT116 cells [2]; [5]): 96.2338% | Dead concentration (HCT116 cells [2]; [6]): 8.03E+05 | Live concentration (HCT116 cells [2]; [6]): 1.85E+07 | Total Concentration (HCT116 cells [2]; [6]): 1.93E+07 | Viability (%) (HCT116 cells [2]; [6]): 95.8447% | Dead concentration (HCT116 cells [2]; [7]): 2.17E+05 | Live concentration (HCT116 cells [2]; [7]): 3.23E+06 | Total Concentration (HCT116 cells [2]; [7]): 3.44E+06 | Viability (%) (HCT116 cells [2]; [7]): 93.6968% | Dead concentration (HCT116 cells [2]; [8]): 5.81E+05 | Live concentration (HCT116 cells [2]; [8]): 4.15E+06 | Total Concentration (HCT116 cells [2]; [8]): 4.73E+06 | Viability (%) (HCT116 cells [2]; [8]): 87.7171% | Dead concentration (HCT116 cells [2]; [9]): 6.69E+05 | Live concentration (HCT116 cells [2]; [9]): 1.10E+07 | Total Concentration (HCT116 cells [2]; [9]): 1.17E+07 | Viability (%) (HCT116 cells [2]; [9]): 94.2771% | Dead concentration (HCT116 cells [2]; [10]): 3.52E+05 | Live concentration (HCT116 cells [2]; [10]): 2.13E+06 | Total Concentration (HCT116 cells [2]; [10]): 2.48E+06 | Viability (%) (HCT116 cells [2]; [10]): 85.8156% | Dead concentration (HCT116 cells [2]; [11]): 2.99E+05 | Live concentration (HCT116 cells [2]; [11]): 4.40E+06 | Total Concentration (HCT116 cells [2]; [11]): 4.70E+06 | Viability (%) (HCT116 cells [2]; [11]): 93.633% | Dead concentration (HCT116 cells [2]; [12]): 3.40E+05 | Live concentration (HCT116 cells [2]; [12]): 4.92E+06 | Total Concentration (HCT116 cells [2]; [12]): 5.26E+06 | Viability (%) (HCT116 cells [2]; [12]): 93.534% | Dead concentration (HCT116 cells [2]; [13]): 2.82E+05 | Live concentration (HCT116 cells [2]; [13]): 3.04E+06 | Total Concentration (HCT116 cells [2]; [13]): 3.32E+06 | Viability (%) (HCT116 cells [2]; [13]): 91.5194% | Dead concentration (HCT116 cells [2]; [14]): 2.93E+05 | Live concentration (HCT116 cells [2]; [14]): 4.07E+06 | Total Concentration (HCT116 cells [2]; [14]): 4.36E+06 | Viability (%) (HCT116 cells [2]; [14]): 93.2796% | Dead concentration (HCT116 cells [2]; [15]): 1.88E+05 | Live concentration (HCT116 cells [2]; [15]): 3.95E+06 | Total Concentration (HCT116 cells [2]; [15]): 4.14E+06 | Viability (%) (HCT116 cells [2]; [15]): 95.4674%
